The experiment concerns the target Spike protein of the COVID-19 Spike-ACE2 Binding Assay Kit (Raybiotech) (SARS-CoV2) (UniProt P0DTC2).

From patent US20240251767A1 come the findings set out here.

Regarding “human SAT Nb-Fc control VH-Ab-8 (HAb8-S) (Fc fusion)”, the IC50 (as a rule, the concentration needed to halve the response being measured) worked out at 0.079 nM.
